For this assay, the target named is LAG-3 expressed at the surface of Jurkat LAG-3+/NFAT-luc2 effector cells (Promega) (UniProt P18627). Kind of assay: cell-based or functional assay.
Sequence of LAG-3 expressed at the surface of Jurkat LAG-3+/NFAT-luc2 effector cells (Promega) (P18627 23-525 limits assumed): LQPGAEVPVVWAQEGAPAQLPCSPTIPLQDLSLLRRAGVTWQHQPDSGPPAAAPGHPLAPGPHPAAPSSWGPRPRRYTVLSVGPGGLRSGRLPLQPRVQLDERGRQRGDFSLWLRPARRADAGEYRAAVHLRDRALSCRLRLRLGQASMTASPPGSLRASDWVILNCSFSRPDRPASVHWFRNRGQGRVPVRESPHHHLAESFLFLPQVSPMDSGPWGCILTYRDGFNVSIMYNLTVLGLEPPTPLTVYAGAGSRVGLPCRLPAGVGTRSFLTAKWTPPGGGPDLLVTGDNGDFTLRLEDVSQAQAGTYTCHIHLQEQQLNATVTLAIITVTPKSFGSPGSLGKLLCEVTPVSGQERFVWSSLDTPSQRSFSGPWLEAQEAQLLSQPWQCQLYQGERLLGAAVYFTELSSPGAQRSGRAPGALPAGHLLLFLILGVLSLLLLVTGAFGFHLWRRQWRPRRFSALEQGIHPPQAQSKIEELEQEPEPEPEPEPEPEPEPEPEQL

Substance “IMP761 (humanized 13E2-human IgG4 Fc antibody)” displayed an inhibition of luciferase expression (RLU) under an NFAT response element in Jurkat LAG-3+/NFAT-luc2 effector cells stimulated with anti-CD3 (OKT3, 3 ng/ml) of 37 ng/mL.
